Values of other authors, collected in patent publication US10190113B2, “Methods and compositions for segregating target nucleic acid from mixed nucleic acid samples” (FLIR DETECTION, INC., priority 2011, dated 2019).
Residue numbers refer to the chain shown, from its start. Names may count otherwise. “And” between values parts separate entries of the source, which are not always exact repeats. Identical values can stand only once.

B1: BsoBI I95M: BsoBI restriction enzyme with mutation I95M (protein, UniProt P70985 2-323, looked up, variant I95M)
Type II restriction enzyme …: NTQKPFENHLKSVDDLKTTYEEYRAGFIAFALEKNKRSTPYIERARALKVAASVAKTPKDLLYLEDIQDALLYASGISDKAKKFLTEDDKKESMNNLIENFLEPAGEEFIDELIFRYLLFQGDSLGGTMRNIAGALAQQKLTRAIISALDIANIPYKWLDSRDKKYTNWMDKPEDDYELETFAKGISWTINGKHRTLMYNITVPLVKKNVDICLFNCEPEIYTPQKVHQQPEKYLLLGELKGGIDPAGADEHWKTANTALTRIRNKFSEKGLSPKTIFIGAAIEHSMAEEIWDQLQSGSLTNSANLTKTEQVGSLCRWIINI
B2: BsoBI D212N: BsoBI restriction enzyme with mutation D212N (protein, UniProt P70985 2-323, looked up, variant D212N)
Type II restriction enzyme …: B1 Type II restriction enzyme … with M94I, D211N
B3: BsoBI G123R: BsoBI restriction enzyme with mutation G123R (protein, UniProt P70985 2-323, looked up, variant G123R)
Type II restriction enzyme …: B1 Type II restriction enzyme … with M94I, G122R
B4: BsoBI K209R: BsoBI restriction enzyme with mutation K209R (protein, UniProt P70985 2-323, looked up, variant K209R)
Type II restriction enzyme …: B1 Type II restriction enzyme … with M94I, K208R
B5: BsoBI D124Y: BsoBI restriction enzyme with mutation D124Y (protein, UniProt P70985 2-323, looked up, variant D124Y)
Type II restriction enzyme …: B1 Type II restriction enzyme … with M94I, D123Y
B6: EcoRV Y72N: EcoRV restriction enzyme with mutation Y72N (protein, UniProt P04390 2-245, looked up, variant Y72N)
Type II restriction enzyme …: SLRSDLINALYDENQKYDVCGIISAEGKIYPLGSDTKVLSTIFELFSRPIINKIAEKHGYIVEEPKQQNHNPDFTLYKPSEPNKKIAIDIKTTYTNKENEKIKFTLGGYTSFIRNNTKNIVYPFDQYIAHWIIGYVYTRVATRKSSLKTYNINELNEIPKPYKGVKVFLQDKWVIAGDLAGSGNTTNIGSIHAHYKDFVEGKGIFDSEDEFLDYWRNYERTSQLRNDKYNNISEYRNWIYRGRK
B7: EcoRV E45D: EcoRV restriction enzyme with mutation E45D (protein, UniProt P04390 2-245, looked up, variant E45D)
Type II restriction enzyme …: B6 Type II restriction enzyme … with E44D, N71Y
B8: EcoRV P73T: EcoRV restriction enzyme with mutation P73T (protein, UniProt P04390 2-245, looked up, variant P73T)
Type II restriction enzyme …: B6 Type II restriction enzyme … with N71Y, P72T
B9: EcoRV K92E: EcoRV restriction enzyme with mutation K92E (protein, UniProt P04390 2-245, looked up, variant K92E)
Type II restriction enzyme …: B6 Type II restriction enzyme … with N71Y, K91E
B10: EcoRV D74N: EcoRV restriction enzyme with mutation D74N (protein, UniProt P04390 2-245, looked up, variant D74N)
Type II restriction enzyme …: B6 Type II restriction enzyme … with N71Y, D73N
B11: EcoRV D74A: EcoRV restriction enzyme with mutation D74A (protein, UniProt P04390 2-245, looked up, variant D74A)
Type II restriction enzyme …: B6 Type II restriction enzyme … with N71Y, D73A
B12: EcoRV D90N: EcoRV restriction enzyme with mutation D90N (two citations) (protein, UniProt P04390 2-245, looked up, variant D90N)
Type II restriction enzyme …: B6 Type II restriction enzyme … with N71Y, D89N
B13: EcoRV K92A: EcoRV restriction enzyme with mutation K92A (protein, UniProt P04390 2-245, looked up, variant K92A)
Type II restriction enzyme …: B6 Type II restriction enzyme … with N71Y, K91A
B14: EcoRV E45A: EcoRV restriction enzyme with mutation E45A (protein, UniProt P04390 2-245, looked up, variant E45A)
Type II restriction enzyme …: B6 Type II restriction enzyme … with E44A, N71Y
B15: EcoRV I91L: EcoRV restriction enzyme with mutation I91L (protein, UniProt P04390 2-245, looked up, variant I91L)
Type II restriction enzyme …: B6 Type II restriction enzyme … with N71Y, I90L
B16: EcoRV P73A: EcoRV restriction enzyme with mutation P73A (two citations) (protein, UniProt P04390 2-245, looked up, variant P73A)
Type II restriction enzyme …: B6 Type II restriction enzyme … with N71Y, P72A
B17: EcoRV K92R: EcoRV restriction enzyme with mutation K92R (protein, UniProt P04390 2-245, looked up, variant K92R)
Type II restriction enzyme …: B6 Type II restriction enzyme … with N71Y, K91R
B18: EcoRV E45Q: EcoRV restriction enzyme with mutation E45Q (protein, UniProt P04390 2-245, looked up, variant E45Q)
Type II restriction enzyme …: B6 Type II restriction enzyme … with E44Q, N71Y
B19: EcoRV D74E: EcoRV restriction enzyme with mutation D74E (protein, UniProt P04390 2-245, looked up, variant D74E)
Type II restriction enzyme …: B6 Type II restriction enzyme … with N71Y, D73E
B20: EcoRV D90A: EcoRV restriction enzyme with mutation D90A (protein, UniProt P04390 2-245, looked up, variant D90A)
Type II restriction enzyme …: B6 Type II restriction enzyme … with N71Y, D89A
B21: EcoRV K92Q: EcoRV restriction enzyme with mutation K92Q (protein, UniProt P04390 2-245, looked up, variant K92Q)
Type II restriction enzyme …: B6 Type II restriction enzyme … with N71Y, K91Q
B22: EcoRV D90T: EcoRV restriction enzyme with mutation D90T (protein, UniProt P04390 2-245, looked up, variant D90T)
Type II restriction enzyme …: B6 Type II restriction enzyme … with N71Y, D89T
B23: BamHI T153I: BamHI restriction enzyme with mutation T153I (listed twice) (protein, UniProt P23940 1-213, looked up, variant T153I)
Type II restriction enzyme …: MEVEKEFITDEAKELLSKDKLIQQAYNEVKTSICSPIWPATSKTFTINNTEKNCNGVVPIKELCYTLLEDTYNWYREKPLDILKLEKKKGGPIDVYKEFIENSELKRVGMEFETGNISSAHRSMNKLLLGLKHGEIDLAIILMPIKQLAYYLIDRVTNFEELEPYFELTEGQPFIFIGFNAEAYNSNVPLIPKGSDGMSKRSIKKWKDKVENK
B24: BamHI G56S: BamHI restriction enzyme with mutation G56S (protein, UniProt P23940 1-213, looked up, variant G56S)
Type II restriction enzyme …: B23 Type II restriction enzyme … with G56S, I153T
B25: BamHI T114I: BamHI restriction enzyme with mutation T114I (protein, UniProt P23940 1-213, looked up, variant T114I)
Type II restriction enzyme …: B23 Type II restriction enzyme … with T114I, I153T
B26: BamHI D94N: BamHI restriction enzyme with mutation D94N (protein, UniProt P23940 1-213, looked up, variant D94N)
Type II restriction enzyme …: B23 Type II restriction enzyme … with D94N, I153T
B27: BamHI G194D: BamHI restriction enzyme with mutation G194D (protein, UniProt P23940 1-213, looked up, variant G194D)
Type II restriction enzyme …: B23 Type II restriction enzyme … with I153T, G194D
B28: BamHI T157I: BamHI restriction enzyme with mutation T157I (protein, UniProt P23940 1-213, looked up, variant T157I)
Type II restriction enzyme …: B23 Type II restriction enzyme … with I153T, T157I
B29: BamHI G130R: BamHI restriction enzyme with mutation G130R (protein, UniProt P23940 1-213, looked up, variant G130R)
Type II restriction enzyme …: B23 Type II restriction enzyme … with G130R, I153T
B30: BamHI E135K: BamHI restriction enzyme with mutation E135K (protein, UniProt P23940 1-213, looked up, variant E135K)
Type II restriction enzyme …: B23 Type II restriction enzyme … with E135K, I153T

Test system: nucleic acid recognition or cleavage site
Conditions: mutant restriction enzyme relative to wild type; cited from earlier work

| Molecule | % of WT cleavage activity |
| --- | --- |
| B1 | <0.1% |
| B2 | <0.1% |
| B3 | <0.1% |
| B4 | <0.1% |
| B5 | <0.1% |
| B6 | <0.1% |
| B7 | <0.3% |
| B8 | 0% |
| B9 | <0.1% |
| B10 | 1.5% |
| B11 | 0% |
| B12 | 0% |
| B13 | <0.1% |
| B14 | <0.1% |
| B15 | <0.1% |
| B16 | <0.1% and 1% |
| B17 | 0% |
| B18 | <0.3% |
| B19 | 0% |
| B20 | 0% |
| B21 | 0% |
| B22 | 0% |
| B23 | 0.1% and 1% |
| B24 | 1% |
| B25 | 1% |
| B26 | <0.1% |
| B27 | 1% |
| B28 | 1% |
| B29 | 0.1% |
| B30 | 1% |
